Test [1] has as its target HRgpA-6H (Porphyromonas gingivalis) (UniProt P28784). In words: ELISA, Fab FASEBA supernatant on coated HRgpA-6H. (In general: ELISA stands for enzyme-linked immunosorbent assay.)
Test [2] has the same target. In words: ELISA, Fab FASEBA supernatant on coated HRgpA-6H (0.0625 ug/ml).

Substitutions are numbered along the chain they refer to. Numbers in names are those of the source. Where “and” joins values, the source holds several entries; their conditions need not be identical. Equal entries are not always repeated.

Chain of UniProt P28784 (P28784 228-991 limits assumed): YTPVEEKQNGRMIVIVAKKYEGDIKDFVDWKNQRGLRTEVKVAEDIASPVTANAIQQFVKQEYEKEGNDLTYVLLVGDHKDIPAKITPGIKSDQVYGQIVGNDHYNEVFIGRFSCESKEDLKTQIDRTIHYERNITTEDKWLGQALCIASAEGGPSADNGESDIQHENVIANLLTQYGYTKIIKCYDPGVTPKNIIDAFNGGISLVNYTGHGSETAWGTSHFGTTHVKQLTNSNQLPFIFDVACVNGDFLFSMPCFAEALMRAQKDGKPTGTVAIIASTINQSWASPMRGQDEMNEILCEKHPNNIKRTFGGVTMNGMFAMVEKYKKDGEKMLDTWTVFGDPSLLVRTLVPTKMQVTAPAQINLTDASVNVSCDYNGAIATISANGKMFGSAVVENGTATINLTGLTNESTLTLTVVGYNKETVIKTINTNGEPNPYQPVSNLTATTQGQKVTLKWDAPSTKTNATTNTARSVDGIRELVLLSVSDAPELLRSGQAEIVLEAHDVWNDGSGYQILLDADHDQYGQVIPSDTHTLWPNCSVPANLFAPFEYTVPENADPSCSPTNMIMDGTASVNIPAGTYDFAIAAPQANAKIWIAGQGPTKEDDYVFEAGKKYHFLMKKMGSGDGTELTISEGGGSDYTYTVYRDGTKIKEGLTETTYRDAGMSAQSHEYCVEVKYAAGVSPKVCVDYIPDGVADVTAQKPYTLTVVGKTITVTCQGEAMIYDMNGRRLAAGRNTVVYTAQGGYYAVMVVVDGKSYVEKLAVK

B1: parental mouse (KB001) Fab FASEBA, VL variant Y92D (Fab, V domains shown)
VH: EVQLKQSGPGLVAPSQSLSITCTVSGFSLSIYSVHWVRQPPGKGLEWLGMIWGGGSSDYNSALKSRLSISKDNSKSQVFLKMNSLQTDDTAMYYCARNGNFYAMDYWGQGTSVTVSS
VL: QIVLTQSPAIMSASLGERVTMTCTASSSVSSSFLHWYQQKPGSSPQLWIYSTSNLASGVPARFSGSGSGTSYSLTISSMEAEDAATYYCHQDHHSPYIYTFGGGTKLEIK
For the molecule B1, in test [1], the OD450nm came to 0.758 OD450nm and the Ratio OD(Variant)/OD(WT) was 0.805 ratio to WT.

B2: parental mouse (KB001) Fab FASEBA, VL variant T100I (Fab, V domains shown)
VH: B1 VH
VL: B1 VL with D92Y, T100I
For the molecule B2, in test [1], the OD450nm is 0.493 OD450nm and the Ratio OD(Variant)/OD(WT) was 0.942 ratio to WT.

B3: parental mouse (KB001) Fab FASEBA, VL variant S95H (Fab, V domains shown)
VH: B1 VH
VL: B1 VL with D92Y, S95H
As for B3, in test [1], the OD450nm worked out at 0.8 OD450nm and the Ratio OD(Variant)/OD(WT) was 0.871 ratio to WT.

B4: parental mouse (KB001) Fab FASEBA, VL variant I98L (Fab, V domains shown)
VH: B1 VH
VL: B1 VL with D92Y, I98L
Take B4: in test [1], the OD450nm worked out at 0.836 OD450nm and the Ratio OD(Variant)/OD(WT) is 0.955 ratio to WT.

B5: parental mouse (KB001) Fab FASEBA, VL variant I98V (Fab, V domains shown)
VH: B1 VH
VL: B1 VL with D92Y, I98V
Regarding B5, in test [1], the OD450nm was 0.832 OD450nm and 0.838 OD450nm and 0.787 OD450nm; the Ratio OD(Variant)/OD(WT) is 0.951 ratio to WT and 0.958 ratio to WT and 0.899 ratio to WT.

B6: parental mouse (KB001) Fab FASEBA, VL variant T100P (Fab, V domains shown)
VH: B1 VH
VL: B1 VL with D92Y, T100P
Take B6: in test [1], the OD450nm stood at 0.46 OD450nm and the Ratio OD(Variant)/OD(WT) was 0.879 ratio to WT.

B7: parental mouse (KB001) Fab FASEBA, VL variant Y97K (Fab, V domains shown)
VH: B1 VH
VL: B1 VL with D92Y, Y97K
B7: in test [1], the OD450nm was determined as 0.654 OD450nm and the Ratio OD(Variant)/OD(WT) was 0.829 ratio to WT.

B8: KB001 parental mouse Fab VH variant K64D (Fab, V domains shown)
VH: B1 VH with K64D
VL: B1 VL with D92Y
In the case of B8, in test [2], the OD450nm was 0.781 and the Ratio OD(Variant)/OD(WT) was found to be 0.944.

B9: parental mouse (KB001) Fab FASEBA, VL variant H93N (Fab, V domains shown)
VH: B1 VH
VL: B1 VL with D92Y, H93N
Take B9: in test [1], the OD450nm was found to be 0.857 OD450nm and the Ratio OD(Variant)/OD(WT) was 0.91 ratio to WT.

B10: parental mouse (KB001) Fab FASEBA, VL variant I98M (Fab, V domains shown)
VH: B1 VH
VL: B1 VL with D92Y, I98M
As to B10, in test [1], the OD450nm came to 0.729 OD450nm and the Ratio OD(Variant)/OD(WT) was 0.833 ratio to WT.

B11: parental mouse (KB001) Fab FASEBA, VL variant S95I (Fab, V domains shown)
VH: B1 VH
VL: B1 VL with D92Y, S95I
As for B11, in test [1], the OD450nm was 0.846 OD450nm and 0.817 OD450nm and 0.791 OD450nm; the Ratio OD(Variant)/OD(WT) is 0.921 ratio to WT and 0.889 ratio to WT and 0.861 ratio to WT.

B12: parental mouse (KB001) Fab FASEBA (Fab, V domains shown)
VH: B1 VH
VL: B1 VL with D92Y
As to B12, in test [1], the OD450nm is 0.9 OD450nm and 0.889 OD450nm; the Ratio OD(Variant)/OD(WT) is 0.98 ratio to WT and 0.968 ratio to WT.

B13: parental mouse (KB001) Fab FASEBA, VL variant Y97L (Fab, V domains shown)
VH: B1 VH
VL: B1 VL with D92Y, Y97L
On to B13, for which, in test [1], the OD450nm stood at 0.739 OD450nm and the Ratio OD(Variant)/OD(WT) was 0.937 ratio to WT.

B14: parental mouse (KB001) Fab FASEBA, VL variant S95Y (Fab, V domains shown)
VH: B1 VH
VL: B1 VL with D92Y, S95Y
As for B14, in test [1], the OD450nm was 0.827 OD450nm and the Ratio OD(Variant)/OD(WT) is 0.9 ratio to WT.

B15: parental mouse (KB001) Fab FASEBA, VL variant Y97S (Fab, V domains shown)
VH: B1 VH
VL: B1 VL with D92Y, Y97S
Consider B15, for which, in test [1], the OD450nm worked out at 0.633 OD450nm and the Ratio OD(Variant)/OD(WT) is 0.802 ratio to WT.

B16: KB001 parental mouse Fab VH variant K64H (Fab, V domains shown)
VH: B1 VH with K64H
VL: B1 VL with D92Y
In the case of B16, in test [2], the OD450nm was 0.788 and 0.806 and 0.73; the Ratio OD(Variant)/OD(WT) is 0.953 and 0.975 and 0.883.

B17: parental mouse (KB001) Fab FASEBA, VL variant H94F (Fab, V domains shown)
VH: B1 VH
VL: B1 VL with D92Y, H94F
B17: in test [1], the OD450nm was 0.77 OD450nm and the Ratio OD(Variant)/OD(WT) is 0.838 ratio to WT.

B18: parental mouse (KB001) Fab FASEBA, VL variant S95E (Fab, V domains shown)
VH: B1 VH
VL: B1 VL with D92Y, S95E
Consider B18, for which, in test [1], the OD450nm was 0.855 OD450nm and 0.82 OD450nm; the Ratio OD(Variant)/OD(WT) is 0.931 ratio to WT and 0.893 ratio to WT.

B19: parental mouse (KB001) Fab FASEBA, VL variant S95Q (Fab, V domains shown)
VH: B1 VH
VL: B1 VL with D92Y, S95Q
On to B19, for which, in test [1], the OD450nm was 0.893 OD450nm and the Ratio OD(Variant)/OD(WT) was 0.972 ratio to WT.

B20: parental mouse (KB001) Fab FASEBA, VL variant Y97Q (Fab, V domains shown)
VH: B1 VH
VL: B1 VL with D92Y, Y97Q
For B20, in test [1], the OD450nm stood at 0.687 OD450nm and the Ratio OD(Variant)/OD(WT) was 0.871 ratio to WT.

B21: parental mouse (KB001) Fab FASEBA, VL variant S95A (Fab, V domains shown)
VH: B1 VH
VL: B1 VL with D92Y, S95A
For B21, in test [1], the OD450nm was 0.83 OD450nm and 0.872 OD450nm; the Ratio OD(Variant)/OD(WT) is 0.904 ratio to WT and 0.949 ratio to WT.

B22: parental mouse (KB001) Fab FASEBA, VL variant H94Y (Fab, V domains shown)
VH: B1 VH
VL: B1 VL with D92Y, H94Y
For the molecule B22, in test [1], the OD450nm was 0.865 OD450nm and the Ratio OD(Variant)/OD(WT) is 0.942 ratio to WT.

B23: KB001 parental mouse Fab VH variant K64Q (Fab, V domains shown)
VH: B1 VH with K64Q
VL: B1 VL with D92Y
With B23, in test [2], the OD450nm amounted to 0.789 and the Ratio OD(Variant)/OD(WT) amounted to 0.954.

B24: parental mouse (KB001) Fab FASEBA, VL variant Y97I (Fab, V domains shown)
VH: B1 VH
VL: B1 VL with D92Y, Y97I
In the case of B24, in test [1], the OD450nm is 0.667 OD450nm and the Ratio OD(Variant)/OD(WT) was 0.845 ratio to WT.

B25: parental mouse (KB001) Fab FASEBA, VL variant S95F (Fab, V domains shown)
VH: B1 VH
VL: B1 VL with D92Y, S95F
In the case of B25, in test [1], the OD450nm turned out to be 0.837 OD450nm and the Ratio OD(Variant)/OD(WT) was 0.911 ratio to WT.

B26: parental mouse (KB001) Fab FASEBA, VL variant Y97R (Fab, V domains shown)
VH: B1 VH
VL: B1 VL with D92Y, Y97R
Regarding B26, in test [1], the OD450nm amounted to 0.769 OD450nm and the Ratio OD(Variant)/OD(WT) was 0.975 ratio to WT.

B27: parental mouse (KB001) Fab FASEBA, VL variant S95T (Fab, V domains shown)
VH: B1 VH
VL: B1 VL with D92Y, S95T
For the molecule B27, in test [1], the OD450nm came out at 0.871 OD450nm and the Ratio OD(Variant)/OD(WT) is 0.948 ratio to WT.

B28: parental mouse (KB001) Fab FASEBA, VL variant S95W (Fab, V domains shown)
VH: B1 VH
VL: B1 VL with D92Y, S95W
As for B28, in test [1], the OD450nm was 0.804 OD450nm and 0.79 OD450nm; the Ratio OD(Variant)/OD(WT) is 0.875 ratio to WT and 0.86 ratio to WT.

B29: parental mouse (KB001) Fab FASEBA, VL variant Y97F (Fab, V domains shown)
VH: B1 VH
VL: B1 VL with D92Y, Y97F
For the molecule B29, in test [1], the OD450nm was 0.75 OD450nm and 0.756 OD450nm; the Ratio OD(Variant)/OD(WT) was 0.951 ratio to WT and 0.958 ratio to WT.

B30: parental mouse (KB001) Fab FASEBA, VL variant I98R (Fab, V domains shown)
VH: B1 VH
VL: B1 VL with D92Y, I98R
For B30, in test [1], the OD450nm was 0.726 OD450nm and 0.722 OD450nm; the Ratio OD(Variant)/OD(WT) was 0.83 ratio to WT and 0.825 ratio to WT.

B31: parental mouse (KB001) Fab FASEBA, VL variant Y97V (Fab, V domains shown)
VH: B1 VH
VL: B1 VL with D92Y, Y97V
Take B31: in test [1], the OD450nm was determined as 0.662 OD450nm and the Ratio OD(Variant)/OD(WT) is 0.839 ratio to WT.

B32: KB001 parental mouse Fab VH variant K64G (Fab, V domains shown)
VH: B1 VH with K64G
VL: B1 VL with D92Y
Take B32: in test [2], the OD450nm stood at 0.811 and the Ratio OD(Variant)/OD(WT) is 0.981.

B33: parental mouse (KB001) Fab FASEBA, VL variant T100V (Fab, V domains shown)
VH: B1 VH
VL: B1 VL with D92Y, T100V
In the case of B33, in test [1], the OD450nm is 0.461 OD450nm and 0.428 OD450nm; the Ratio OD(Variant)/OD(WT) is 0.881 ratio to WT and 0.818 ratio to WT.

B34: parental mouse (KB001) Fab FASEBA, VL variant Y97H (Fab, V domains shown)
VH: B1 VH
VL: B1 VL with D92Y, Y97H
For the molecule B34, in test [1], the OD450nm worked out at 0.775 OD450nm and the Ratio OD(Variant)/OD(WT) is 0.982 ratio to WT.

B35: parental mouse (KB001) Fab FASEBA, VL variant S95C (Fab, V domains shown)
VH: B1 VH
VL: B1 VL with D92Y, S95C
Take B35: in test [1], the OD450nm worked out at 0.849 OD450nm and the Ratio OD(Variant)/OD(WT) was 0.924 ratio to WT.

B36: parental mouse (KB001) Fab FASEBA, VL variant S95N (Fab, V domains shown)
VH: B1 VH
VL: B1 VL with D92Y, S95N
Turning to B36, in test [1], the OD450nm was 0.863 OD450nm and 0.884 OD450nm; the Ratio OD(Variant)/OD(WT) was 0.94 ratio to WT and 0.962 ratio to WT.

B37: parental mouse (KB001) Fab FASEBA, VL variant Y92N (Fab, V domains shown)
VH: B1 VH
VL: B1 VL with D92N
In the case of B37, in test [1], the OD450nm turned out to be 0.773 OD450nm and the Ratio OD(Variant)/OD(WT) is 0.821 ratio to WT.
